Experimental data as given in patent US20140162285A1, “Methods of Modulating Vesicular Trafficking” (The General Hospital Corporation, priority 2009, published 2014).

Target: T1, ARNO PB-domain (Homo sapiens, UniProt Q99418)
T1 construct: v) 379-400aa, polybasic (PB) domain; made in house; host or cells: E. coli BL21(DE3)
Experiment: GST pull-down of in vitro translated a2N with ARNO PB-domain
Assay type: binding
Settings: GST pull-down with GST- and His-tagged PB-domain construct
Procedure: The purified recombinant GST-ARNO(wt) and GST-tagged ARNO domain constructs ([…]) were incubated with 10 μl of in vitro translated 6His-a2N recombinant protein at 4° C. for 2 hours in 500 μl of binding buffer (10 mM HEPES, 1 mM EDTA, 1 mM DTT, 100 mM NaCl, 10% glycerol, 0.1% NP-40) with gentle rotation. Then the interacting recombinant proteins were immobilized on glutathione beads by incubation with 50 μl of 50% glutathione Sepharose 4B slurry for 2 hours at 4° C. The beads were collected by centrifugation and washed 5 times with 500 μl ice-cold binding buffer. Interacting proteins were eluted by boiling in SDS-PAGE sample buffer for 10 min at 95° C., resolved by SDS-PAGE and analyzed by Western blotting using polyclonal anti-a2N antibodies. […]
To examine the ability of these well-defined and functionally distinct domains of ARNO to interact with a2N1-402, full-length ARNO(wt) and its four domains were cloned separately for bacterial expression of recombinant proteins (FIG. 3). […] Interacting proteins were detected by western blot analysis with a2-specific antibodies as described above.

T1 sequence (Q99418 379-400 limits assumed): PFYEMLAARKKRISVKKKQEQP

interaction of a2N with ARNO PB-domain: no interaction
B1: a2N: recombinant N-terminal cytosolic tail, amino acid residues 1-402 of mouse V-ATPase a2-subunit (protein)
chain: MGSLFRSESMCLAQLFLQSGTAYECLSALGEKGLVQFRDLNQNVSSFQRKFVGEVKRCEELERILVYLVQEITRADIPLPEGEASPPAPPLKHVLEMQEQLQKLEVELREVTKNKEKLRKNLLELVEYTHMLRVTKTFLKRNVEFEPTYEEFPALENDSLLDYSCMQRLGAKLGFVSGLIQQGRVEAFERMLWRACKGYTIVTYAELDECLEDPETGEVIKWYVFLISFWGEQIGHKVKKICDCYHCHIYPYPNTAEERREIQEGLNTRIQDLYTVLHKTEDYLRQVLCKAAESVCSRVVQVRKMKAIYHMLNMCSFDVTNKCLIAEVWCPEVDLPGLRRALEEGSRESGATIPSFMNTIPTKETPPTLIRTNKFTEGFQNIVDAYGVGSYREVNPALFTII
modifications: left off: small tags and cut ends
notes: recombinant N-terminal cytosolic tail, amino acid residues 1-402 of mouse V-ATPase a2-subunit
